{"source": "paper PMC4624963", "about": "“Enzymatic Characterization of Recombinant Food Vacuole Plasmepsin 4 from the Rodent Malaria Parasite Plasmodium berghei” (PLoS ONE, 2015)", "binders": {"B1": {"name": "compound 1 (KPYEFΨRQF), peptidomimetic inhibitor designed for PbPM4 (peptide)", "peptide": "KPYEFRQF", "modifications": "not fully specified (residue 5); printed as KPYEFΨRQF; also: Ψ pseudo-peptide bond between F5 and R6", "notes": "source: synthetic peptide"}, "B2": {"name": "compound 3 (KPnLSnLΨLQI), peptidomimetic inhibitor designed for PfPM2 (peptide)", "chain": "KP[Nle]S[Nle]LQI", "modifications": "also: reduced amide Ψ[CH2-NH] between Nle5 and Leu6"}}, "conditions_in_all_cases": "both partners purified", "key": {"[1]": {"target": "T1, plasmepsin 1 from Plasmodium falciparum (Plasmodium falciparum, UniProt P39898 124-452)", "T1 construct": "also called PfPM1", "test": "enzyme inhibition kinetics (Ki of competitive inhibition); initial cleavage velocities of a chromogenic peptide substrate at varied inhibitor concentration; mature PfPM1 pre-incubated in 100 mM sodium citrate pH 5.5, 37°C, 3 min"}, "[2]": {"target": "T2, plasmepsin 4 from Plasmodium falciparum (Plasmodium falciparum, UniProt Q8IM16 122-449)", "T2 construct": "also called PfPM4; source: zymogen converted to mature enzyme at pH 4.5, 37°C, 5 min", "test": "enzyme inhibition kinetics (Ki of competitive inhibition); initial cleavage velocities of a chromogenic peptide substrate at varied inhibitor concentration; plasmepsins pre-incubated in 100 mM sodium formate pH 4.5, 37°C, 5 min to convert zymogen to mature enzyme"}, "[3]": {"target": "T3, plasmepsin 2 from Plasmodium falciparum (Plasmodium falciparum, UniProt P46925 125-453)", "T3 construct": "also called PfPM2; source: zymogen converted to mature enzyme at pH 4.5, 37°C, 5 min", "test": "enzyme inhibition kinetics (Ki of competitive inhibition); initial cleavage velocities of a chromogenic peptide substrate at varied inhibitor concentration; plasmepsins pre-incubated in 100 mM sodium formate pH 4.5, 37°C, 5 min to convert zymogen to mature enzyme"}, "[4]": {"target": "T4, mature plasmepsin 4 of Plasmodium berghei (PbPM4), auto-matured from semi-proPbPM4 (Plasmodium berghei ANKA)", "T4 construct": "also called mature PbPM4; FV plasmepsin 4; source: converted to mature enzyme by 5 min pre-incubation in sodium citrate pH 5.0 at 37°C", "test": "enzyme inhibition kinetics (Ki of competitive inhibition); initial cleavage velocities of a chromogenic peptide substrate at varied inhibitor concentration, spectrophotometric; proPbPM4 pre-incubated in 100 mM sodium citrate pH 5.0, 37°C, 5 min; tight-binding or non-tight-binding competitive fit"}}, "note": "Where no end group is shown, it is not given here. [ ]: non-standard residue; d: D form. Nle = CCCC[C@H](N)C(=O)O", "data": [{"binder": "B1", "values": [{"measurement": "Ki", "setting": "[1]", "value": "> 100000", "unit": "nM"}, {"measurement": "Ki", "setting": "[2]", "value": "190 ± 19", "unit": "nM"}, {"measurement": "Ki", "setting": "[3]", "value": 35000, "unit": "nM"}]}, {"binder": "B2", "values": [{"measurement": "Ki", "setting": "[4]", "value": "375 ± 54", "unit": "nM"}]}]}
